The values below come from publication PMC7969020.

The subject of the series is TDG (thymine DNA glycosylase), full length (Homo sapiens). Kind of series: EMSA. To be noted: EMSA: 5 nM 32P DNA or mononucleosome, TDG 0-1 uM, buffer NB (composition not in material) + 0.2 mM MgCl2, 5% glycerol, 37 C 20 min; 5% native PAGE at 4 C. On the technique in general: In EMSA bound probe runs differently from free probe, usually more slowly.
With 601 DNA (naked, 147 bp), the Kd (usually the equilibrium constant for the complex coming apart) was found to be 0.038 µM.

As to 0-NCP-0 mononucleosome, the Kd was found to be 0.185 µM.

In the case of 0-NCP-30 mononucleosome, the Kd came to 0.059 µM.

For the substance 30-NCP-30 mononucleosome, the Kd was determined as 0.062 µM.
